Measurements reported in patent publication US20210324094A1 (MOGAM INSTITUTE FOR BIOMEDICAL RESEARCH, published 2021).

Columns and labels:
Mouse IR = biological target: T1, Mouse IR (mouse, UniProt P15208 28-946, limits assumed); test: SPR, IR immobilised on CM5 chip, IR739 flowed, pH 7.0
T1 construct: also called mouse insulin receptor
Protocol: (§1) Human IR or mouse IR at 1 μg/ml was immobilized with acetate (pH 4.0) on a CM5 sensor chip. […] For measurement conditions, a flow rate was set as 30 μl/min, and an association time and a dissociation time were set as 120 seconds and 600 seconds, respectively. For regeneration, 10 mM glycine-HCl (pH 1.5) was flowed for 30 seconds.

Human IR = biological target: T2, Human IR (human, UniProt P06213 28-956, limits assumed); test: as above
T2 construct: the natural receptor is processed into alpha and beta chains; also called human insulin receptor
Protocol: as §1

Kd (Mouse IR): 6.4 nM
koff (Mouse IR): 0.00061 s⁻¹
kon (Mouse IR): 95300 M⁻¹ s⁻¹
Kd (Human IR): 15 nM
koff (Human IR): 0.00144 s⁻¹
kon (Human IR): 96000 M⁻¹ s⁻¹
B1: IR739 (antibody, human IgG1, kappa, V domains shown)
VH: EVQLVESGGGLVQPGGSLRLSCAASGFTFSSYYMSWVRQAPGKGLEWVSAISYGGSSTYYADSVKGRFTISRDNSKNTLYLQMNSLRAEDTAVYYCARHPSYGTVNHAYFDVWGQGTLVTVSS
VL: DIQMTQSPSSLSASVGDRVTITCGASRDVSSYLAWYQQKPGKAPKLLIYDANILQSGVPSRFSGSGSGTDFTLTISSLQPEDFATYYCLEYNNLPLTFGQGTKVEIKR
notes: Conventional IgG from a human synthetic scFv library; also called IR739 antibody; anti-IR antibody
